Measured values from patent US20260317428 (published 2026).
One block for each binder: values may come before it.

Experiments:
[1] = target: FGFR2IIIc on HEK293 cells (human, UniProt P21802); assay: FACS
[2] = target: T1, human FGFR3c (alpha IIIc) (human, UniProt P22607); assay: ELISA
T1 chain: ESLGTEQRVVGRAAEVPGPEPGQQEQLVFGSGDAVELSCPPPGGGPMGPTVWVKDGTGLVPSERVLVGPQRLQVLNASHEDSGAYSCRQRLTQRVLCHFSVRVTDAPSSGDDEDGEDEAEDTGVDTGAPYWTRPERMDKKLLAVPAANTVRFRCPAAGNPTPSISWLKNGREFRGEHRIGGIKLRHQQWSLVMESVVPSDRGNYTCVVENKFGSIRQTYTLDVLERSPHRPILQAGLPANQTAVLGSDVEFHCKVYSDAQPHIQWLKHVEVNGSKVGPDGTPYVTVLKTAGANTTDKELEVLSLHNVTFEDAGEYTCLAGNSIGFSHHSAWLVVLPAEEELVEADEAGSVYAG

[3] = target: T2, human FGFR1b (alpha IIIb) (human, UniProt P11362); assay: ELISA
T2 chain: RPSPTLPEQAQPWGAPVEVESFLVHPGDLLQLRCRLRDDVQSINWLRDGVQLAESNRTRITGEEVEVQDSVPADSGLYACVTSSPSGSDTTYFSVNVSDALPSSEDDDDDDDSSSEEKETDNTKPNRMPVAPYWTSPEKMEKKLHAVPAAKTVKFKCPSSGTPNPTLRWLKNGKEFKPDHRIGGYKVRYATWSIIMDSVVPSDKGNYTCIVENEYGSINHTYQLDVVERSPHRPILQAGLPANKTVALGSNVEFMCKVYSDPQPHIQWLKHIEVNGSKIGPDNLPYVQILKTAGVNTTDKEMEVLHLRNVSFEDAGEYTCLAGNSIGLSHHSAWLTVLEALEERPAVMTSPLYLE

[4] = target: human FGFR2c (alpha IIIc) (human, UniProt P21802); assay: ELISA
[5] = target: T3, human FGFR3b (alpha IIIb) (human, UniProt P22607); assay: ELISA
T3 chain: T1 chain

[6] = target: T4, human FGFR1c (FGFR1/CD331) (human, UniProt P11362); assay: ELISA
T4 chain: T2 chain

[7] = target: human FGFR4 (CD334) (human, UniProt P22455); assay: ELISA
[8] = target: T5, human FGFR2b ECD (human, UniProt P21802); assay: BLI
T5 chain: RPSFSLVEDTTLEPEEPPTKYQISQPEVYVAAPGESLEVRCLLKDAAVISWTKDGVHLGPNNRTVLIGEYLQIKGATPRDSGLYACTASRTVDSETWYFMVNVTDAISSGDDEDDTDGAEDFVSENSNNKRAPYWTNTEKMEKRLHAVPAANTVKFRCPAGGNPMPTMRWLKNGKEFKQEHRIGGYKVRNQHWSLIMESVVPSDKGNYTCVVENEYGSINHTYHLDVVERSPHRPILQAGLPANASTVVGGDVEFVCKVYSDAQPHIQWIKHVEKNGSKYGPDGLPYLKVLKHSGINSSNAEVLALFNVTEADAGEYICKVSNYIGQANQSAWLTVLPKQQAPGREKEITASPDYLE

human FGFR4 (CD334), sequence (P22455 22-369): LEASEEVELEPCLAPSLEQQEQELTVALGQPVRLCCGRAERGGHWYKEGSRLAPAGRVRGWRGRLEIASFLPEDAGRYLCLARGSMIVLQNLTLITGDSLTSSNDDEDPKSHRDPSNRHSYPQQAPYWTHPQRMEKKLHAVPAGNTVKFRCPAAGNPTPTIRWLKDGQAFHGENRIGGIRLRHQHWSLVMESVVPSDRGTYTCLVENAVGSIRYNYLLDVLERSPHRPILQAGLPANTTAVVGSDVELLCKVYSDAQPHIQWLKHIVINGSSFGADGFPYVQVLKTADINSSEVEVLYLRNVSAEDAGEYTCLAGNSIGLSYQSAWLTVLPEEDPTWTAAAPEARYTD

binding result [1]: no binding | binding result [2]: no binding | binding result [3]: no binding | binding result [4]: no binding | binding result [5]: no binding | binding result [6]: no binding | binding result [7]: no binding
B1: mAb1 (antibody, V domains shown)
VH: QAYLQQSGAELVRPGASVKMSCKASGYTFTSYNMHWVKQTPRQGLEWIGSIYPENGDTSYNQKFRDKATLTVDKSSSTAYMQLSSLTSEDSAVYFCARPFDYWGQGTTLTVSS
VL: SIVMTQTPKFLPISAGDRVTMTCKASQSVGNNVAWYQQKPGQSPKLLIYYASNRYTGVPDRFTGSGSGTDFTFTISSVQVEDLAVYFCQQFYSSPYTFGSGTKLEIK

Kd [8]: < 1 nM | binding result [1]: no binding | binding result [2]: no binding | binding result [3]: no binding | binding result [4]: no binding | binding result [5]: no binding | binding result [6]: no binding | binding result [7]: no binding
B2: humAbA1 (antibody, V domains shown)
VH: QVQLVQSGAEVKKPGASVKVSCKASGYTFTSYNMHWVRQAPGQGLEWMGSIYPENGDTSYNQKFQDRVTLTRDTSTSTVYMELSSLRSEDTAVYYCARPFDYWGQGTLVTVSS
VL: DIQMTQSPSSLSASVGDRVTITCQASQSVGNNLAWYQQKPGKAPKLLIYYASNLYTGVPSRFSGSGSGTDFTFTISSLQPEDIATYYCQQFYSSPYTFGQGTKLEIKR
